The record followed here is the nanobody polyreactivity screen of Harvey et al. (2022).

The data set is described as follows: yeast display, Sf9 membrane polyspecificity reagent, FACS + sequencing; frameworks hold sequencing errors. In a few lines: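 A synthetic nanobody library was expressed on Saccharomyces cerevisiae BJ5465 by galactose induction for 36–48 hours. The library was stained for 1 hour at 4 °C with 10% biotinylated, detergent-solubilized Sf9 membrane reagent and enriched with streptavidin microbeads before FACS. Low and high (top ~1%) gates were set on anti-HA fluorescence for expression and streptavidin fluorescence for reagent binding, and each polyreactivity label reflects the gate of origin.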
Regarding “QVQLVESGGGLVQAGGSLRLSCAASGFTFSYYAMGWYRQAPGKERELVAAITSGGSTYYADSVKGRFTISRDNAKNTVYLQMNSLKPEDTAVYYCNARGYGTLNVRRERMDYWGQGTQVTVSS”, the “polyreactivity (PSR sort gate)” value is listed as “high polyreactivity”. The entry for “QVQLVESGGGLVQAGGSLRLSCAASGFTFSYYDMGWYRQAPGKERELVAAISSSASRTYYADSVKGRFTISRDNAKNTVYLQMNSLKPEDTAVYYCAARYSESRTGHLDYWGQGTQVTVSS” is “high polyreactivity”; for “QVQLVESGGGLVQAGGSLRLSCAASGFTFSYYGMGWNIQAPRKERELVPALTRSGTNTYYADSVKGRFTISRDNAKNTVYLQMKSLKPEDTAVFYCNADVAWSGYHDWYWSSEDYWGQGTQVTVSS” it is “low polyreactivity”; for “QVQLVESGGGLVQAGGSLRLSCAASGFTFTDYAMGWYRQAPGKERELVAAISGIGGSTYYADSVKGRFTISRDNAKNTVYLQMNSLKPEDTAVYYCAAELTKWRFWGLHDSWGQGTQVTVSS” it is “high polyreactivity”. On to “QVQLVESGGGLVQAGGSLRLSCAASGFTFTDYAMGWYRRAPGKESELVAAISSGGSTNYADSVKGRFTISRDNAKNTVYLQMNSLKPEDTAVYYCAAYYVYRAPVRYEYWGQGTQVTVSS”, for which the “polyreactivity (PSR sort gate)” value was “high polyreactivity”. As for “QVQLVESGGGLVQAGGSLRLSCAASGFTFTDYTMGWYRQAPGKEREFVAAISYRGSNTYYADSVKGRFTISRDNAKNTVYLQMNSLKPEDTAVYYCAADSYRYKYNYWGQGTQVTVSS”, the “polyreactivity (PSR sort gate)” value was “high polyreactivity”. For the sequence “QVQLVESGGGLVQAGGSLRLSCAASGFTFTGNAMVWYRQAPGKERELVAAIRGSGGSTYYADSVKGRFTISRDNAKNTVNLQMKSLKPDVTAVYYCATYYIRNKGFDYWGQGTQVTVSS”, the “polyreactivity (PSR sort gate)” value is recorded as “high polyreactivity”.

On to “QVQLVESGGGLVQAGGSLRLSCAASGFTFTGYAMGWYRQAPGKERELVAAISHDGGSTYYADSVKGRFTISRDNAKNTVYLQMNSLKPEDTAVYYCAAAFRAAGRTVRYYWGQGTQVTVSS”, for which the “polyreactivity (PSR sort gate)” value is given as “high polyreactivity”. In the case of “QVQLVESGGGLVQAGGSLRLSCAASGFTFTGYAMGWYRQAPGKERELVAALTRGGGSTYYADSVKGRFTISRDNAKNTVYLQMNSLKPEDTAVYYCAAQRSRLIRISSPYYGHDYWGQGTQVTVSS” it was “low polyreactivity”. As for “QVQLVESGGGLVQAGGSLRLSCAASGFTFTLYAMGWYRQAPGKERELVAAISWNGSTYYADSVKGRFTISRDNAKNTVYLQMNSLKPEDTAVYYCNADVWISYNNAYVTLDYWGQGTQVTVSS”, the “polyreactivity (PSR sort gate)” value is on record as “high polyreactivity”. As for “QVQLVESGGGLVQAGGSLRLSCAASGFTFTPNAMGWYRQAPGKERELVAAITWNGGTTYYADSVKGRFTISRDNAKNTVYLQMNSLKPEDTAVYYCNADGLILYDYWGQGTQVTVSS”, the “polyreactivity (PSR sort gate)” value is “low polyreactivity”. “QVQLVESGGGLVQAGGSLRLSCAASGFTFTRYAMGRYRQAPGKERELGATITKRGGSTYYADSVKGRFTISRDNAKNTVYLQLNSLKPEDTAVYFCAARNVRTYVTGVDYDYWGQGTQVTVSS”: the “polyreactivity (PSR sort gate)” value is reported as “high polyreactivity”. Turning to “QVQLVESGGGLVQAGGSLRLSCAASGFTFTRYAMGWYRQAPGKERELVAAISRIGGSTYYADSVKGRFTISRDNAKNTVYLQMNSLKPEDTAVYYCAAYKVPSYDYWGQGTQVTVSS”, the “polyreactivity (PSR sort gate)” value is “high polyreactivity”. “QVQLVESGGGLVQAGGSLRLSCAASGFTFTSYAMGWYRQAPGKERELVAAINRSGGSTTYADSEKGRFTISRDNAKNTVYLQMNSLKPEDTAVYYCAKAFRGHYWGQGTQVTVSS”: the “polyreactivity (PSR sort gate)” value is given as “high polyreactivity”. The entry for “QVQLVESGGGLVQAGGSLRLSCAASGFTFTSYTMGWYRQAPGKERELVAGISTNGGTTYYADSVKGRFTISRDNAKNTVYLQMNSLKPEDTAVYYCNAKRKYGRFPKKYYYWGQGTQVTVSS” is “high polyreactivity”; for “QVQLVESGGGLVQAGGSLRLSCAASGFTFTVYAMGWYRQAPGQERELVATISRSAGRTYYADSVKGRFTISRDNAKNTVYLQMNSLKPEDTPVYYCNAAYGNGYTGGFDNWGQGTQVTVSS” it is “high polyreactivity”; for “QVQLVESGGGLVQAGGSLRLSCAASGFTFTWYAMGWYRQAPGKERELVATISRSGGRTYYADSVKGRFTISRDNAKNTVYLQLNSLKPEDTAVYYCAADTRNYPRYDYWGQGTQVTVSS” it is “high polyreactivity”. In the case of “QVQLVESGGGLVQAGGSLRLSCAASGFTFTYYAMGWYRQAPGKERELVAAISSSGGRTYYADSVKGRFTISRDNAKNTVYLQMNSLKPEDTAVYYCAARSVSATPDFHYWGQGTQVTVSS” it was “high polyreactivity”; in that of “QVQLVESGGGLVQAGGSLRLSCAASGFTFVINDMGWYRQAPGTERELVADITSGGDTYYADSVKGRFTISRDNAKNTDYLQLNSLKPEDTAVYYCAADIYPDWIYLLYGYWGQGTQVTVSS”, “low polyreactivity”. Consider “QVQLVESGGGLVQAGGSLRLSCAASGFTFVKNAMGWYRQAPGKERELVAAITGSAGRTYYADSVKGRFTISRANAKNTVYLQMNSLKPEDTAVYYCNVYYGYFRSRYGYWGQGTQVTVSS”, for which the “polyreactivity (PSR sort gate)” value is “high polyreactivity”. As for “QVQLVESGGGLVQAGGSLRLSCAASGFTFVNYAMGWYRQAPGKERELVAAIRRSGSRTYYADSVKGRFTISRDNAKNTVYLQINSLKPEDTAVYYCGAVCYRLYGYWGQGTQVTVSS”, the “polyreactivity (PSR sort gate)” value was “low polyreactivity”. On to “QVQLVESGGGLVQAGGSLRLSCAASGFTFVNYAMGWYRQAPWKERELVAAIRRSGSRTYYADSVKGRFTISRDIAKNTVYLQMNCLNPEDTAVYYCAAVWYRLYGYWGQGTQVTVSS”, for which the “polyreactivity (PSR sort gate)” value is “low polyreactivity”.

With “QVQLVESGGGLVQAGGSLRLSCAASGFTFVPYAMGWYRQAPGKERETNADSVKGRFTISRDNAKNTVYLQMNSLKPEDTAVYYCAAGGYGPYDYWGQGTQVTVSS”, the “polyreactivity (PSR sort gate)” value was “low polyreactivity”. As for “QVQLVESGGGLVQAGGSLRLSCAASGFTFVRNTMGWYRQAPGKERELVAAISRSGGSTYYADSVKGRFTISRDNAKNTVYLQMYSLKPEDTAVYYCNAYRYVHYDWGQGSQVTVSS”, the “polyreactivity (PSR sort gate)” value is reported as “high polyreactivity”.

For “QVQLVESGGGLVQAGGSLRLSCAASGFTFVRNTMGWYRQATGKERELVAAISRSGGSTYYADSVKGRFTISRDNAKNTVYFKIYSLKPEDSAVYYCNAYRYVHYDWGHGTQVTVSS”, the “polyreactivity (PSR sort gate)” value was “high polyreactivity”. The entry for “QVQLVESGGGLVQAGGSLRLSCAASGFTFVRNTMGWYRQPPGKETELVAAINRSGGNTYYADSVKGRFTISRDNAKNTVYLQMNCLKPEDTAVYYCAADGFGRRDYYYWGQGTQVTVSS” is “high polyreactivity”. “QVQLVESGGGLVQAGGSLRLSCAASGFTFVRYAMGWYRKAPGKERELVAAISGSGDRTYYADSVKGRFTISRDNAKNTVYLQMNSLKPEDTAVYYCAKKSLGARHTGRYNYWGQGTQVTVSS”: the “polyreactivity (PSR sort gate)” value is “high polyreactivity”. The entry for “QVQLVESGGGLVQAGGSLRLSCAASGFTFVRYAMGWYRQAPGKEREFVASISARGGNTFYADSVKGRFTISRDNAKNTVYLQMNSLKPEDTAVYYCAKRGPYGTGYGYWGQGTQVTVSS” is “high polyreactivity”.

For “QVQLVESGGGLVQAGGSLRLSCAASGFTFVRYAMGWYRQAPGKERELVAAISRRGGSTYYADSVKGRFTISRDNAKNTVYLQMNSLKPEDTAVYYCAARAPYRRVRMNYWGQGTQVTVSS”, the “polyreactivity (PSR sort gate)” value is listed as “high polyreactivity”. Take “QVQLVESGGGLVQAGGSLRLSCAASGFTFVRYAMGWYRQAPGKERELVAVISRSGGSTNYADSVKGRFTISRDNAKNTVYLQMNSLKAEDTAVYYCNVVVKGAWDYYPYDYWGQGTQVTVSS”: the “polyreactivity (PSR sort gate)” value is “high polyreactivity”.

In the case of “QVQLVESGGGLVQAGGSLRLSCAASGFTFVRYVMGWSRQAPGKERELVAAISRSGGSTHYADSVKGRFTISRDNAKNTVYLQMNSLKPEDTAVYYCAAASPRWPGQGDYWGQGTQVTVSS”, the “polyreactivity (PSR sort gate)” value is “high polyreactivity”. Turning to “QVQLVESGGGLVQAGGSLRLSCAASGFTFVSNALGWYRQAPGKETELVADITSDGSTNYADSVKGRFSISRDNAKNTVYLQMNSLKPEDTAVYYCATDQRSHTWVNQFDYWGLGTQVTVSS”, the “polyreactivity (PSR sort gate)” value is on record as “low polyreactivity”. Regarding “QVQLVESGGGLVQAGGSLRLSCAASGFTFVSNDMGWYRQAPGKERELVAVITTGDTSTSYADSVKGRFTISRDNAKNTVYLQMNSLKPEDTAVYYCAADPHDTVRHDALVELEYWGQGTQVTVSS”, the “polyreactivity (PSR sort gate)” value was “low polyreactivity”.

Regarding “QVQLVESGGGLVQAGGSLRLSCAASGFTFVSYAMGWYRQAPGKERELVAAISRSGGTTYYADSVKGRFTISRDNAKNTGYFQMNSLKPEDTAVYYCAADFYVFYTRYYYWGQGTQVTVSS”, the “polyreactivity (PSR sort gate)” value is given as “low polyreactivity”. Regarding “QVQLVESGGGLVQAGGSLRLSCAASGFTFVSYAMGWYRQAPGKERELVATITSDGSTNYADSVKGRFTISRDNAKNTVYLQMNSLKPEDTAVYYCAADIHYYPGYLAYDYWGQGTQVTVSS”, the “polyreactivity (PSR sort gate)” value is given as “low polyreactivity”.

For the sequence “QVQLVESGGGLVQAGGSLRLSCAASGFTFVTNAMGWYRQAPGKERELVAAISRRGGSTYYADSVKGRFTISRDIAKNTVNLEMNSLKPEDTAVYYCNADRQRRRQFSFSSPYDYWGQGTLVTVSS”, the “polyreactivity (PSR sort gate)” value is recorded as “high polyreactivity”.

For the sequence “QVQLVESGGGLVQAGGSLRLSCAASGFTFVTNAMGWYRQAPGKERELVAAISRRGGSTYYADSVKGRFTISRDNAKNTVDLQMNSLKPEDTPVYYCNADRQRRRQFSFSSPYDYWGQGTQVTVSS”, the “polyreactivity (PSR sort gate)” value is “high polyreactivity”. Consider “QVQLVESGGGLVQAGGSLRLSCAASGFTFVVYTMGWYRQAPGKEREFVAVISESGGSTYYADSVKGRFTISRDNAKNTVYLQMNSLKPEDTAVYYCAARTRYYRDNYWGQVTQVTVSS”, for which the “polyreactivity (PSR sort gate)” value is “high polyreactivity”. With “QVQLVESGGGLVQAGGSLRLSCAASGFTFVWNARGWYRQAPGKERELVAVISYSGGSTYYADSVKGRFTISRDNAKNTVYLQMNSLKPEETAVDYCAAEFVTYYSSSKRAYYYWGQGTLVTVSS”, the “polyreactivity (PSR sort gate)” value is listed as “high polyreactivity”. Consider “QVQLVESGGGLVQAGGSLRLSCAASGFTFVWYAMGWYRQAPGKERELVAAISRRGTRTYYADSVKGRFTISRDNAKNTVYLQMNSLKPEDTAVYYCAASPWGGYGYWGQGTQVTLSS”, for which the “polyreactivity (PSR sort gate)” value is given as “high polyreactivity”. For the sequence “QVQLVESGGGLVQAGGSLRLSCAASGFTFVYYAMGWYRQAPGKEREFVAAISLSGGSTYYADSVKGRFTISRDNAKNTVYLQMNSLKPEDTAVYYCATDWSLRIERDYGYWGQGTQVTVSS”, the “polyreactivity (PSR sort gate)” value is reported as “low polyreactivity”.
